Test results published in paper PMC9352680, “A comprehensive thermodynamic model for RNA binding by the Saccharomyces cerevisiae Pumilio protein PUF4”.

T1: PUF4 RNA-binding domain (Saccharomyces cerevisiae, UniProt P25339 537-888)
T1 sequence: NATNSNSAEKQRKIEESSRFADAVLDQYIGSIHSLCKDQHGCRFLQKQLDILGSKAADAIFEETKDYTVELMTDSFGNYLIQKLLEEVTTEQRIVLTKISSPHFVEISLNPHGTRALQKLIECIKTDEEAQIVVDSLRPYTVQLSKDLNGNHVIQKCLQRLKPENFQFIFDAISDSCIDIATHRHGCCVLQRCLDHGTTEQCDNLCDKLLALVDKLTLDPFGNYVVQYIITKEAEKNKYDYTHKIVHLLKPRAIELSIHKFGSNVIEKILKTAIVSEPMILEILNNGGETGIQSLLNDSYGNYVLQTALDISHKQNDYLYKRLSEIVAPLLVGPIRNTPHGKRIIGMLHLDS


Biological target: T1, PUF4 RNA-binding domain
Assay: Mg; RNA-MaP; 20 mM Na-HEPES pH 7.4, 30 mM KOAc, 0.75 mM MgCl2, 0.1% Tween-20, 5% glycerol, 0.1 mg/mL BSA, 2 mM DTT; 25 C; 0.0125-409.6 nM protein
Conditions: tags: N-His6-TEV cleaved; C-SNAP kept, Cy3B-labelled; label: tethered on chip by stalled RNA polymerase

Binder	Kd [nM]
UCUCUUUGUAGCAACCUCUCUU (ssRNA) [Ic_S1_P5E.1_K5.1_C5.1_H5.1_A5.1_[T5G]_[T6C]_F5.1_[T8A]_[T9C]_[A10C]_T5.1]	1850
UCUCUUUGUACUCCACUCUCUU (ssRNA) [Ic_S1_P5E.1_K5.1_C5.1_H5.1_A5.1_[T5C]_[A7C]_F5.1_[T8C]_[T9A]_[A10C]_T5.1]	500
UCUCUUUGUAUGUCCUUCUCUU (ssRNA) [Ic_S1_P5E.1_K5.1_C5.1_H5.1_A5.1_[T6G]_[A7T]_F5.1_[T8C]_[T9C]_[A10T]_T5.1]	88.1
UCUCUUUGUAAACUGGUCUCUU (ssRNA) [Ic_S1_P5E.1_K5.1_C5.1_H5.1_A5.1_[T5A]_[T6A]_[A7C]_F5.1_[T9G]_[A10G]_T5.1]	16.9
UCUCUUUGUAACUAGUUCUCUU (ssRNA) [Ic_S1_P5E.1_K5.1_C5.1_H5.1_A5.1_[T5A]_[T6C]_[A7T]_F5.1_[T8A]_[T9G]_[A10T]_T5.1]	642
UCUCUUUGUAAACGCUUCUCUU (ssRNA) [Ic_S1_P5E.1_K5.1_C5.1_H5.1_A5.1_[T5A]_[T6A]_[A7C]_F5.1_[T8G]_[T9C]_[A10T]_T5.1]	854
UCUCUUUGUAUCUCGCUCUCUU (ssRNA) [Ic_S1_P5E.1_K5.1_C5.1_H5.1_A5.1_[T6C]_[A7T]_F5.1_[T8C]_[T9G]_[A10C]_T5.1]	160
UCUCUUUGUAUACCGAUCUCUU (ssRNA) [Ic_S1_P5E.1_K5.1_C5.1_H5.1_A5.1_[T6A]_[A7C]_F5.1_[T8C]_[T9G]_T5.1]	450
UCUCUUUGUACCUUUUUCUCUU (ssRNA) [Ic_S1_P5E.1_K5.1_C5.1_H5.1_A5.1_[T5C]_[T6C]_[A7T]_F5.1_[A10T]_T5.1]	26.7
UCUCUUUGUAACCCCAUCUCUU (ssRNA) [Ic_S1_P5E.1_K5.1_C5.1_H5.1_A5.1_[T5A]_[T6C]_[A7C]_F5.1_[T8C]_[T9C]_T5.1]	1280
UCUCUUUGUAAAUUCUUCUCUU (ssRNA) [Ic_S1_P5E.1_K5.1_C5.1_H5.1_A5.1_[T5A]_[T6A]_[A7T]_F5.1_[T9C]_[A10T]_T5.1]	20.1
UCUCUUUGUAACACGGUCUCUU (ssRNA) [Ic_S1_P5E.1_K5.1_C5.1_H5.1_A5.1_[T5A]_[T6C]_F5.1_[T8C]_[T9G]_[A10G]_T5.1]	2070
UCUCUUUGUAAAUCCGUCUCUU (ssRNA) [Ic_S1_P5E.1_K5.1_C5.1_H5.1_A5.1_[T5A]_[T6A]_[A7T]_F5.1_[T8C]_[T9C]_[A10G]_T5.1]	747
UCUCUUUGUAAACACUUCUCUU (ssRNA) [Ic_S1_P5E.1_K5.1_C5.1_H5.1_A5.1_[T5A]_[T6A]_[A7C]_F5.1_[T8A]_[T9C]_[A10T]_T5.1]	666
UCUCUUUGUAAUCACGUCUCUU (ssRNA) [Ic_S1_P5E.1_K5.1_C5.1_H5.1_A5.1_[T5A]_[A7C]_F5.1_[T8A]_[T9C]_[A10G]_T5.1]	1250
UCUCUUUGUACGUCACUCUCUU (ssRNA) [Ic_S1_P5E.1_K5.1_C5.1_H5.1_A5.1_[T5C]_[T6G]_[A7T]_F5.1_[T8C]_[T9A]_[A10C]_T5.1]	580
UCUCUUUGUAACCUAUUCUCUU (ssRNA) [Ic_S1_P5E.1_K5.1_C5.1_H5.1_A5.1_[T5A]_[T6C]_[A7C]_F5.1_[T9A]_[A10T]_T5.1]	12.8
UCUCUUUGUAUUCGAUUCUCUU (ssRNA) [Ic_S1_P5E.1_K5.1_C5.1_H5.1_A5.1_[A7C]_F5.1_[T8G]_[T9A]_[A10T]_T5.1]	466
UCUCUUUGUAGCCUAUUCUCUU (ssRNA) [Ic_S1_P5E.1_K5.1_C5.1_H5.1_A5.1_[T5G]_[T6C]_[A7C]_F5.1_[T9A]_[A10T]_T5.1]	17.1
UCUCUUUGUAUCAGUGUCUCUU (ssRNA) [Ic_S1_P5E.1_K5.1_C5.1_H5.1_A5.1_[T6C]_F5.1_[T8G]_[A10G]_T5.1]	441
UCUCUUUGUAUGUUUCUCUU (ssRNA) [Ic_S1_P3E.1_K3.1_C3.1_H3.1_A3.1_[A6G]_F3.1_[A8T]_T3.1]	49.3
UCUCUUUGUACACACGUCUCUU (ssRNA) [Ic_S1_P5E.1_K5.1_C5.1_H5.1_A5.1_[T5C]_[T6A]_[A7C]_F5.1_[T8A]_[T9C]_[A10G]_T5.1]	122

Binder	Kd [nM]
UCUCUUUGUAGUUCCUUCUCUU (ssRNA) [Ic_S1_P5E.1_K5.1_C5.1_H5.1_A5.1_[T5G]_[A7T]_F5.1_[T8C]_[T9C]_[A10T]_T5.1]	1760
UCUCUUUGUACUAUACUCUCUU (ssRNA) [Ic_S1_P5E.1_K5.1_C5.1_H5.1_A5.1_[T5C]_F5.1_[T9A]_[A10C]_T5.1]	2.18
UCUCUUUGUAGCGUUAUCUCUU (ssRNA) [Ic_S1_P5E.1_K5.1_C5.1_H5.1_A5.1_[T5G]_[T6C]_[A7G]_F5.1_T5.1]	36.4
UCUCUUUGUACGUUGUUCUCUU (ssRNA) [Ic_S1_P5E.1_K5.1_C5.1_H5.1_A5.1_[T5C]_[T6G]_[A7T]_F5.1_[T9G]_[A10T]_T5.1]	34.8
UCUCUUUGUACUACACUCUCUU (ssRNA) [Ic_S1_P5E.1_K5.1_C5.1_H5.1_A5.1_[T5C]_F5.1_[T8C]_[T9A]_[A10C]_T5.1]	455
UCUCUUUGUAAUCGACUCUCUU (ssRNA) [Ic_S1_P5E.1_K5.1_C5.1_H5.1_A5.1_[T5A]_[A7C]_F5.1_[T8G]_[T9A]_[A10C]_T5.1]	1540
UCUCUUUGUAUAACCGUCUCUU (ssRNA) [Ic_S1_P5E.1_K5.1_C5.1_H5.1_A5.1_[T6A]_F5.1_[T8C]_[T9C]_[A10G]_T5.1]	152
UCUCUUUGUAUUUUCGUCUCUU (ssRNA) [Ic_S1_P5E.1_K5.1_C5.1_H5.1_A5.1_[A7T]_F5.1_[T9C]_[A10G]_T5.1]	37.6
UCUCUUUGUAAUUUAGUCUCUU (ssRNA) [Ic_S1_P5E.1_K5.1_C5.1_H5.1_A5.1_[T5A]_[A7T]_F5.1_[T9A]_[A10G]_T5.1]	3.08
UCUCUUUGUAUUUCCAUCUCUU (ssRNA) [Ic_S1_P5E.1_K5.1_C5.1_H5.1_A5.1_[A7T]_F5.1_[T8C]_[T9C]_T5.1]	363
UCUCUUUGUAGCUUUUUCUCUU (ssRNA) [Ic_S1_P5E.1_K5.1_C5.1_H5.1_A5.1_[T5G]_[T6C]_[A7T]_F5.1_[A10T]_T5.1]	516
UCUCUUUGUAUCUCUCUCUU (ssRNA) [Ic_S1_P3E.1_K3.1_C3.1_H3.1_A3.1_[A6C]_F3.1_[A8C]_T3.1]	97.4
UCUCUUUGUAUGCCGGUCUCUU (ssRNA) [Ic_S1_P5E.1_K5.1_C5.1_H5.1_A5.1_[T6G]_[A7C]_F5.1_[T8C]_[T9G]_[A10G]_T5.1]	> 2300
UCUCUUUGUAACAUGCUCUCUU (ssRNA) [Ic_S1_P5E.1_K5.1_C5.1_H5.1_A5.1_[T5A]_[T6C]_F5.1_[T9G]_[A10C]_T5.1]	13.2
UCUCUUUGUAUCUGUCUCUU (ssRNA) [Ib_S1_P3E.1_K3.1_C3.1_H3.1_A3.1_[A6C]_F3.1_[A8G]_T3.1]	81.8
UCUCUUUGUAGCUGUAUCUCUU (ssRNA) [Ic_S1_P5E.1_K5.1_C5.1_H5.1_A5.1_[T5G]_[T6C]_[A7T]_F5.1_[T8G]_T5.1]	47.8
UCUCUUUGUAGCACUGUCUCUU (ssRNA) [Ic_S1_P5E.1_K5.1_C5.1_H5.1_A5.1_[T5G]_[T6C]_F5.1_[T8C]_[A10G]_T5.1]	> 2300
UCUCUUUGUAUAAGCCUCUCUU (ssRNA) [Ic_S1_P5E.1_K5.1_C5.1_H5.1_A5.1_[T6A]_F5.1_[T8G]_[T9C]_[A10C]_T5.1]	794
UCUCUUUGUAUCUCCGUCUCUU (ssRNA) [Ic_S1_P5E.1_K5.1_C5.1_H5.1_A5.1_[T6C]_[A7T]_F5.1_[T8C]_[T9C]_[A10G]_T5.1]	484
UCUCUUUGUACGAUCAUCUCUU (ssRNA) [Ic_S1_P5E.1_K5.1_C5.1_H5.1_A5.1_[T5C]_[T6G]_F5.1_[T9C]_T5.1]	88.9
UCUCUUUGUAUUUGUCUCUU (ssRNA) [Ic_S1_P3E.1_K3.1_C3.1_H3.1_A3.1_[A6T]_F3.1_[A8G]_T3.1]	106
UCUCUUUGUACGUGCCUCUCUU (ssRNA) [Ic_S1_P5E.1_K5.1_C5.1_H5.1_A5.1_[T5C]_[T6G]_[A7T]_F5.1_[T8G]_[T9C]_[A10C]_T5.1]	583

Binder	Kd [nM]
UCUCUUUGUACGUCUUUCUCUU (ssRNA) [Ic_S1_P5E.1_K5.1_C5.1_H5.1_A5.1_[T5C]_[T6G]_[A7T]_F5.1_[T8C]_[A10T]_T5.1]	425
UCUCUUUGUAGCCCUUUCUCUU (ssRNA) [Ic_S1_P5E.1_K5.1_C5.1_H5.1_A5.1_[T5G]_[T6C]_[A7C]_F5.1_[T8C]_[A10T]_T5.1]	> 2300
UCUCUUUGUACAGCCCUCUCUU (ssRNA) [Ic_S1_P5E.1_K5.1_C5.1_H5.1_A5.1_[T5C]_[T6A]_[A7G]_F5.1_[T8C]_[T9C]_[A10C]_T5.1]	142
UCUCUUUGUAAAAACCUCUCUU (ssRNA) [Ic_S1_P5E.1_K5.1_C5.1_H5.1_A5.1_[T5A]_[T6A]_F5.1_[T8A]_[T9C]_[A10C]_T5.1]	1140
UCUCUUUGUAGCCUACUCUCUU (ssRNA) [Ic_S1_P5E.1_K5.1_C5.1_H5.1_A5.1_[T5G]_[T6C]_[A7C]_F5.1_[T9A]_[A10C]_T5.1]	48.9
UCUCUUUGUAUUUCUCUCUU (ssRNA) [Ic_S1_P3E.1_K3.1_C3.1_H3.1_A3.1_[A6T]_F3.1_[A8C]_T3.1]	111
UCUCUUUGUACAUGUAUCUCUU (ssRNA) [Ic_S1_P5E.1_K5.1_C5.1_H5.1_A5.1_[T5C]_[T6A]_[A7T]_F5.1_[T8G]_T5.1]	8.91
UCUCUUUGUAAAUAAUUCUCUU (ssRNA) [Ic_S1_P5E.1_K5.1_C5.1_H5.1_A5.1_[T5A]_[T6A]_[A7T]_F5.1_[T8A]_[T9A]_[A10T]_T5.1]	30.5
UCUCUUUGUACCUUUAUCUCUU (ssRNA) [Ic_S1_P5E.1_K5.1_C5.1_H5.1_A5.1_[T5C]_[T6C]_[A7T]_F5.1_T5.1]	6.83
UCUCUUUGUAUAUGACUCUCUU (ssRNA) [Ic_S1_P5E.1_K5.1_C5.1_H5.1_A5.1_[T6A]_[A7T]_F5.1_[T8G]_[T9A]_[A10C]_T5.1]	16.1
UCUCUUUGUAACCUAGUCUCUU (ssRNA) [Ic_S1_P5E.1_K5.1_C5.1_H5.1_A5.1_[T5A]_[T6C]_[A7C]_F5.1_[T9A]_[A10G]_T5.1]	4.64
UCUCUUUGUAAACCUCUCUCUU (ssRNA) [Ic_S1_P5E.1_K5.1_C5.1_H5.1_A5.1_[T5A]_[T6A]_[A7C]_F5.1_[T8C]_[A10C]_T5.1]	548
UCUCUUUGUAGCCCUAUCUCUU (ssRNA) [Ic_S1_P5E.1_K5.1_C5.1_H5.1_A5.1_[T5G]_[T6C]_[A7C]_F5.1_[T8C]_T5.1]	113
UCUCUUUGUAUCAAUUUCUCUU (ssRNA) [Ic_S1_P5E.1_K5.1_C5.1_H5.1_A5.1_[T6C]_F5.1_[T8A]_[A10T]_T5.1]	85.2
UCUCUUUGUAUAUGAUCUCUU (ssRNA) [Ic_S1_P4E.1_K4.1_C4.1_H4.1_A4.1_F4.1_[T8G]_T4.1]	15.4
UCUCUUUGUACUGGCUUCUCUU (ssRNA) [Ic_S1_P5E.1_K5.1_C5.1_H5.1_A5.1_[T5C]_[A7G]_F5.1_[T8G]_[T9C]_[A10T]_T5.1]	991
UCUCUUUGUAUGUCUCUCUU (ssRNA) [Ic_S1_P3E.1_K3.1_C3.1_H3.1_A3.1_[A6G]_F3.1_[A8C]_T3.1]	677
UCUCUUUGUAGCAUUGUCUCUU (ssRNA) [Ic_S1_P5E.1_K5.1_C5.1_H5.1_A5.1_[T5G]_[T6C]_F5.1_[A10G]_T5.1]	771
UCUCUUUGUAUAUGAUUCUCUU (ssRNA) [Ic_S1_P5E.1_K5.1_C5.1_H5.1_A5.1_[T6A]_[A7T]_F5.1_[T8G]_[T9A]_[A10T]_T5.1]	12.1
UCUCUUUGUACAUGUGUCUCUU (ssRNA) [Ic_S1_P5E.1_K5.1_C5.1_H5.1_A5.1_[T5C]_[T6A]_[A7T]_F5.1_[T8G]_[A10G]_T5.1]	27.2
